Measured values from patent US12139520B2 (priority 2020, dated 2024).
Numbered stars: 1 amine (or outer) side, 2 acyl side, 3 side chain; on linkers, the order of the positions; unused ones are H or OH. Bridge positions count the residues as written; N and C are the ends. Square brackets hold non-standard residues; d marks the D form. Ends that are not written are not given here. Peptide text beside a SMILES is read from it. * marks the point of attachment. C20 diacid = O=C(O)CCCCCCCCCCCCCCCCCCC(=O)*; γGlu = O=C(O)[C@H](CCC(=O)[*:2])N[*:1]; Hyp = O=C(O)[C@@H]1C[C@@H](O)CN1

T1: hAMY3 receptor (Homo sapiens, UniProt O60896+P30988)
T1 sequence (P30988 25-474): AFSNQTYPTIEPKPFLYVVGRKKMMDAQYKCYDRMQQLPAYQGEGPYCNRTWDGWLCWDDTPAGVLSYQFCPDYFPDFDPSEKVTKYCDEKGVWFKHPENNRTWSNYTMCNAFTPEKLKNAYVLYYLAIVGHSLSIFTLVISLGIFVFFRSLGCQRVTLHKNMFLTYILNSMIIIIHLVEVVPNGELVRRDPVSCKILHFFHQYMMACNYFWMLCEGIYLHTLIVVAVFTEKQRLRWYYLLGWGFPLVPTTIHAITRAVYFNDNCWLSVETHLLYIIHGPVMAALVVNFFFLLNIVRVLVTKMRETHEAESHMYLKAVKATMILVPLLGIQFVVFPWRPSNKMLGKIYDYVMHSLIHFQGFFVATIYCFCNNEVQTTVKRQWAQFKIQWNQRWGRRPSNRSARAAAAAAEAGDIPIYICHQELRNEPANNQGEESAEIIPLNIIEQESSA
T1 sequence (O60896 24-148 partner): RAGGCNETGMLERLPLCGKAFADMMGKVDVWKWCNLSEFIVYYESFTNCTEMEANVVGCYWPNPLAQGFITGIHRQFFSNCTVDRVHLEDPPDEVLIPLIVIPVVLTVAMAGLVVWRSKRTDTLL

T2: hAMY3R (human, UniProt P30988)
T2 sequence 1: T1 sequence (P30988 25-474)
T2 sequence 2: T1 sequence (O60896 24-148 partner)


biological target: T1, hAMY3 receptor; assay: cAMP assay for in vitro receptor activation, hAMY3-R; type: cell-based; details: cAMP assay, hAMY3 receptor; read-out: hAMY3R EC50
Method: General Protocols for cAMP Assays for Measuring In Vitro Receptor Activation
Cells stably overexpressing the hAMY3 receptor were obtained from Ogeda (now Astellas Pharma), sub-cloned and a monoclonal cell-line with an appropriate assay-window was expanded, aliquoted and frozen.
An aliquot was thawed and plated in DPBS with 0.05% casein and 0.5 mM IBMX as 2000 cells/well in a 384-well format. The cells were then immediately stimulated for 30 min at room temperature with graded doses of test compound using human amylin (Bachem, cat no. H-7905) as a positive control. cAMP accumulation was measured using a Cisbio assay for Gs coupled receptors (cat. no. 62AM4PEC), where the assay reagents were added as per the manufacturer's instructions and time-resolved fluorescence energy transfer recorded after one hour.

Molecule	EC50 [nM]
CC[C@H](C)[C@H](NC(=O)[C@H](CCC(N)=O)NC(=O)[C@H](Cc1c[nH]cn1)NC(=O)[C@H](C)NC(=O)[C@H](CC(C)C)NC(=O)[C@H](CCCNC(=N)N)NC(=O)[C@H](CCC(N)=O)NC(=O)[C@@H](NC(=O)[C@@H](NC(=O)[C@@H]1CSSC[C@H](NC(=O)[C@@H](N)CCCCN)C(=O)N[C@@H](CC(N)=O)C(=O)N[C@@H](Cc2ccccc2)C(=O)N[C@@H](C)C(=O)N[C@@H]([C@@H](C)O)C(=O)N1)[C@@H](C)O)C(C)C)C(=O)N[C@@H](Cc1ccc(O)cc1)C(=O)N[C@@H](CCC(N)=O)C(=O)N[C@@H](Cc1ccccc1)C(=O)N[C@H](C(=O)N[C@@H](CC(=O)O)C(=O)N[C@@H](CCCCN)C(=O)N[C@@H](CC(=O)O)C(=O)N[C@@H](CCCCN)C(=O)N[C@@H](CC(=O)O)C(=O)N[C@@H](CC(N)=O)C(=O)N[C@H](C(=O)N[C@@H](C)C(=O)N1CCC[C@H]1C(=O)N[C@@H](CCCNC(=N)N)C(=O)N[C@H](C(=O)N[C@@H](CCCCN)C(=O)N[C@H](C(=O)NCC(=O)N[C@@H](CO)C(=O)N[C@@H](CC(N)=O)C(=O)NCC(=O)N1C[C@H](O)C[C@H]1C(N)=O)C(C)C)[C@@H](C)O)C(C)C)[C@@H](C)O [compound 3] (H-KCNFATCTVQRLAHQIYQFTDKDKDNVAPRTKVGSNG[Hyp]-NH2; disulfide 2-7)	0.006
CC[C@H](C)[C@H](NC(=O)[C@H](CCC(N)=O)NC(=O)[C@H](Cc1c[nH]cn1)NC(=O)[C@H](C)NC(=O)[C@H](CC(C)C)NC(=O)[C@H](CCCNC(=N)N)NC(=O)[C@H](CCC(N)=O)NC(=O)[C@@H](NC(=O)[C@@H](NC(=O)[C@@H]1CSSC[C@H](NC(=O)[C@@H](N)CCCCN)C(=O)N[C@@H](CC(N)=O)C(=O)N[C@@H](Cc2ccccc2)C(=O)N[C@@H](C)C(=O)N[C@@H]([C@@H](C)O)C(=O)N1)[C@@H](C)O)C(C)C)C(=O)N[C@@H](Cc1ccc(O)cc1)C(=O)N[C@@H](CCC(N)=O)C(=O)N[C@@H](Cc1ccccc1)C(=O)N[C@H](C(=O)N[C@@H](CC(=O)O)C(=O)N[C@@H](CCCCN)C(=O)N[C@@H](CC(=O)O)C(=O)N[C@@H](CCCCN)C(=O)N[C@@H](CC(=O)O)C(=O)N[C@@H](CC(N)=O)C(=O)N[C@H](C(=O)N[C@@H](C)C(=O)N1CCC[C@H]1C(=O)N1CCC[C@H]1C(=O)N[C@H](C(=O)N[C@@H](CCC(=O)O)C(=O)N[C@H](C(=O)NCC(=O)N[C@@H](CO)C(=O)N[C@@H](CC(N)=O)C(=O)NCC(=O)N1C[C@H](O)C[C@H]1C(N)=O)C(C)C)[C@@H](C)O)C(C)C)[C@@H](C)O [compound 10] (H-KCNFATCTVQRLAHQIYQFTDKDKDNVAPPTEVGSNG[Hyp]-NH2; disulfide 2-7; N-terminus assumed)	0.007
CC(C)C[C@H](NC(=O)[C@H](CCCNC(=N)N)NC(=O)[C@H](CCC(N)=O)NC(=O)[C@@H](NC(=O)[C@@H](NC(=O)[C@@H]1CSSC[C@H](NC(=O)CN)C(=O)N[C@@H](CCCNC(=N)N)C(=O)N[C@@H](Cc2ccccc2)C(=O)NCC(=O)N[C@@H]([C@@H](C)O)C(=O)N1)[C@@H](C)O)C(C)C)C(=O)N[C@@H](C)C(=O)N[C@@H](CC(N)=O)C(=O)N[C@@H](Cc1ccccc1)C(=O)N[C@@H](CC(C)C)C(=O)N[C@@H](Cc1ccc(O)cc1)C(=O)N[C@@H](CCC(N)=O)C(=O)N[C@@H](Cc1ccccc1)C(=O)N[C@H](C(=O)N[C@@H](CC(=O)O)C(=O)N[C@@H](CCCCN)C(=O)N[C@@H](CC(=O)O)C(=O)N[C@@H](CCCCN)C(=O)N[C@@H](CC(=O)O)C(=O)N[C@@H](CC(N)=O)C(=O)N[C@H](C(=O)N[C@@H](C)C(=O)N1CCC[C@H]1C(=O)N[C@@H](CCCNC(=N)N)C(=O)N[C@H](C(=O)N[C@@H](CC(N)=O)C(=O)N[C@H](C(=O)NCC(=O)N1CCC[C@H]1C(=O)N[C@@H](CCC(N)=O)C(=O)NCC(=O)N[C@@H](Cc1ccc(O)cc1)C(N)=O)C(C)C)[C@@H](C)O)C(C)C)[C@@H](C)O [compound 16] (H-GCRFGTCTVQRLANFLYQFTDKDKDNVAPRTNVGPQGY-NH2; disulfide 2-7)	0.008
CC[C@H](C)[C@H](NC(=O)[C@H](CCC(N)=O)NC(=O)[C@H](Cc1c[nH]cn1)NC(=O)[C@H](C)NC(=O)[C@H](CC(C)C)NC(=O)[C@H](CCCNC(=N)N)NC(=O)[C@H](CCC(N)=O)NC(=O)[C@@H](NC(=O)[C@@H](NC(=O)[C@@H]1CSSC[C@H](NC(=O)[C@@H](N)CCCCN)C(=O)N[C@@H](CC(N)=O)C(=O)N[C@@H](Cc2ccccc2)C(=O)N[C@@H](C)C(=O)N[C@@H]([C@@H](C)O)C(=O)N1)[C@@H](C)O)C(C)C)C(=O)N[C@@H](Cc1ccc(O)cc1)C(=O)N[C@@H](CCC(N)=O)C(=O)N[C@@H](Cc1ccccc1)C(=O)N[C@H](C(=O)N[C@@H](CC(=O)O)C(=O)N[C@@H](CCCCN)C(=O)N[C@@H](CC(=O)O)C(=O)N[C@@H](CCCCN)C(=O)N[C@@H](CC(=O)O)C(=O)N[C@@H](CC(N)=O)C(=O)N[C@H](C(=O)N[C@@H](C)C(=O)N1CCC[C@H]1C(=O)N[C@@H](CCCNC(=N)N)C(=O)N[C@H](C(=O)N[C@@H](CCC(=O)O)C(=O)N[C@H](C(=O)NCC(=O)N[C@@H](CO)C(=O)N[C@@H](CC(N)=O)C(=O)NCC(=O)N1C[C@H](O)C[C@H]1C(N)=O)C(C)C)[C@@H](C)O)C(C)C)[C@@H](C)O [compound 17] (H-KCNFATCTVQRLAHQIYQFTDKDKDNVAPRTEVGSNG[Hyp]-NH2; disulfide 2-7; N-terminus assumed)	0.008

biological target: T2, hAMY3R; assay: cell-based or functional assay; details: not given

Molecule	hAMY3R EC50 (cAMP) [nM]
GCRTGTCTVQRLAHQIYQFTDKDKDNVAPRTNVGPQG[Hyp]-NH2 (disulfide 2-7 (inferred); ends not checked) [SEQ ID NO: 49]	0.011
{C20 diacid-γGlu}-KCNTATCTVQRLAYQIYQFTDKDKDNVAPPTNVGSNG[Hyp]-NH2 (disulfide 2-7 (inferred); ends not checked) [SEQ ID NO: 47]	0.011
GCRFGTCTVQRLAHQIYQFTDKDKDNVAPRTKVGPQG[Hyp]-NH2 (disulfide 2-7 (inferred); ends not checked) [SEQ ID NO: 45]	0.011
KCNTATCTVQRLAHQIYAFTDKDKDNVAPPTNVGSNG[Hyp]-NH2 (disulfide 2-7 (inferred); ends not checked) [SEQ ID NO: 42]	0.01
{C20 diacid-γGlu}-KCNTATCTVQRLAHQIYQYTDKDKDNVAPPTNVGSNG[Hyp]-NH2 (disulfide 2-7 (inferred); ends not checked) [SEQ ID NO: 48]	0.011
KCNTATCTVQRLAHQIYQFTDKAKDNVAPPTNVGSNG[Hyp]-NH2 (disulfide 2-7 (inferred); ends not checked) [SEQ ID NO: 43]	0.01
GCRFGTCTVQRLAHQIYQFTDKDKDNVAPRTNIGPQG[Hyp]-NH2 (disulfide 2-7 (inferred); ends not checked) [SEQ ID NO: 46]	0.011
KCNTATCTVQRLAEQIYQFTDKDKDNVAPPYNEGSNG[Hyp]-NH2 (disulfide 2-7 (inferred); ends not checked) [SEQ ID NO: 44]	0.01

biological target: hAM1R (human, UniProt Q16602); assay: cell-based or functional assay; details: not given

Molecule	hAM1R EC50 (cAMP) [nM]
GCRTGTCTVQRLAHQIYQFTDKDKDNVAPRTNVGPQG[Hyp]-NH2 (disulfide 2-7 (inferred); ends not checked) [SEQ ID NO: 49]	2980
{C20 diacid-γGlu}-KCNTATCTVQRLAYQIYQFTDKDKDNVAPPTNVGSNG[Hyp]-NH2 (disulfide 2-7 (inferred); ends not checked) [SEQ ID NO: 47]	500
GCRFGTCTVQRLAHQIYQFTDKDKDNVAPRTKVGPQG[Hyp]-NH2 (disulfide 2-7 (inferred); ends not checked) [SEQ ID NO: 45]	50.5
KCNTATCTVQRLAHQIYAFTDKDKDNVAPPTNVGSNG[Hyp]-NH2 (disulfide 2-7 (inferred); ends not checked) [SEQ ID NO: 42]	> 5000
{C20 diacid-γGlu}-KCNTATCTVQRLAHQIYQYTDKDKDNVAPPTNVGSNG[Hyp]-NH2 (disulfide 2-7 (inferred); ends not checked) [SEQ ID NO: 48]	761
KCNTATCTVQRLAHQIYQFTDKAKDNVAPPTNVGSNG[Hyp]-NH2 (disulfide 2-7 (inferred); ends not checked) [SEQ ID NO: 43]	> 5000
GCRFGTCTVQRLAHQIYQFTDKDKDNVAPRTNIGPQG[Hyp]-NH2 (disulfide 2-7 (inferred); ends not checked) [SEQ ID NO: 46]	78.5
KCNTATCTVQRLAEQIYQFTDKDKDNVAPPYNEGSNG[Hyp]-NH2 (disulfide 2-7 (inferred); ends not checked) [SEQ ID NO: 44]	> 5000
